Measured values as given in US20230348603A1.

Columns and labels:
[1] = biological target: Human VSIG4-L-Fc (human); assay: BLI cross-blocking on hVSIG4-L-Fc, competitor 14C05 first
[2] = biological target: Human VSIG4-L-Fc (human); assay: BLI cross-blocking on hVSIG4-L-Fc, competitor 12A12 first

Chain of Human VSIG4-L-Fc (human) (chain, as listed by the source limits assumed): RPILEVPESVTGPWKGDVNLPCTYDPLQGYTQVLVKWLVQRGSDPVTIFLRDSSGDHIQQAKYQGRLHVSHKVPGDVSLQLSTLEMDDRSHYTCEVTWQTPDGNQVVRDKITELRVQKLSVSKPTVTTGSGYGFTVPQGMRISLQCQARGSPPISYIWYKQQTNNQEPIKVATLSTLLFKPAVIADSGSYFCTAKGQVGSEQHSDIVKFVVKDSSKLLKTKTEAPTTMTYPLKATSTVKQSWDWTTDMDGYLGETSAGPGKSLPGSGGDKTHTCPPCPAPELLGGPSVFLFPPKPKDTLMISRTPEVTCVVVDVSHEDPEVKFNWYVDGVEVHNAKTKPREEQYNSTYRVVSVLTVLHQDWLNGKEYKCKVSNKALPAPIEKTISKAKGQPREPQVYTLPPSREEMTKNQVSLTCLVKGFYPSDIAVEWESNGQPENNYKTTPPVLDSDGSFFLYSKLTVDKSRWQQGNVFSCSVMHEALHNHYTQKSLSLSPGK

Substance: isotype control antibody (Table 16)
- binding signal (nm shift) [1]: 0 nm
- binding signal (nm shift) [2]: 0 nm
